molecular target: PD-1 from the PD-1 effector cells (UniProt Q15116 25-288, limits assumed); assay: cell-based or functional assay
Sequence (Q15116 25-288 limits assumed): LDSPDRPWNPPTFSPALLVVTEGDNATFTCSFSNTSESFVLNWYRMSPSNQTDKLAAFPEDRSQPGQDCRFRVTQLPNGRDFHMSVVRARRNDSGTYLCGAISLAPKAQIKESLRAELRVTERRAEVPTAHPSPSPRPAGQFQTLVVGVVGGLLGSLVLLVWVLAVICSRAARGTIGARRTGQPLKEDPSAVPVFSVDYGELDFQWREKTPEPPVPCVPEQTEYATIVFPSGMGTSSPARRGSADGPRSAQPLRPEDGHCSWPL

Binder	EC50 (nM), fold induction of luminescence in the PD-1/PD-L1 Blockade Bioassay [nM]
UCM7 (other) heavy 1: QVQLVQSGVEVKKPGASVKVSCKASGYTFTNYYMYWVRQAPGQGLEWMGGINPSNGGTNFNEKFKNRVTLTTDSSTTTAYMELKSLQFDDTAVYYCARRDYRFDMGFDYWGQGTTVTVSSASTKGPSVFPLAPSSKSTSGGTAALGCLVKDYFPEPVTVSWNSGALTSGVHTFPAVLQSSGLYSLSSVVTVPSSSLGTQTYICNVNHKPSNTKVDKKVEPKSCDKTHTCPPCPAPELLGGPSVFLFPPKPKDTLMISRTPEVTCVVVDVSHEDPEVKFNWYVDGVEVHNAKTKPREEQYASTYRVVSVLTVLHQDWLNGKEYKCKVSNKALPAPIEKTISKAKGQPREPQVYTLPPCRDELTKNQVSLWCLVKGFYPSDIAVEWESNGQPENNYKTTPPVLDSDGSFFLYSKLTVDKSRWQQGNVFSCSVMHEALHNRFTQKSLSLSPGGGSSPPGGGSSGGGSGPAPTSSSTKKTQLQLEHLLLDLQMILNGINNYKNPKLTAMLTAKFAMPKKATELKHLQCLEEALKPLEEVLNLAQSKNFHLRPRDLISNINVIVLELKGSETTFMCEYADETATIVEFLNRWITFAQSIISTLT heavy 2: QVQLVQSGVEVKKPGASVKVSCKASGYTFTNYYMYWVRQAPGQGLEWMGGINPSNGGTNFNEKFKNRVTLTTDSSTTTAYMELKSLQFDDTAVYYCARRDYRFDMGFDYWGQGTTVTVSSASTKGPSVFPLAPSSKSTSGGTAALGCLVKDYFPEPVTVSWNSGALTSGVHTFPAVLQSSGLYSLSSVVTVPSSSLGTQTYICNVNHKPSNTKVDKKVEPKSCDKTHTCPPCPAPELLGGPSVFLFPPKPKDTLMISRTPEVTCVVVDVSHEDPEVKFNWYVDGVEVHNAKTKPREEQYASTYRVVSVLTVLHQDWLNGKEYKCKVSNKALPAPIEKTISKAKGQPREPQVCTLPPSRDELTKNQVSLSCAVKGFYPSDIAVEWESNGQPENNYKTTPPVLDSDGSFFLVSKLTVDKSRWQQGNVFSCSVMHEALHNHYTQKSLGGPLGLGGSSGSGGSGGGSGSGGGEVQLVESGGGLVQPGGSLRLSCAASGSIFSINVMGWYRQAPGKQRELVAAISSGGSTNYADSVKGRFTISRDNAKNTVYLQMNSLKPEDTAVYYCMYASSWYEDETDYWGQGTQVTVSS light: EIVLTQSPATLSLSPGERATLSCRASKGVSTSGYSYLHWYQQKPGQAPRLLIYLASYLESGVPARFSGSGSGTDFTLTISSLEPEDFAVYYCQHSRDLPLTFGGGTKVEIKRTVAAPSVFIFPPSDEQLKSGTASVVCLLNNFYPREAKVQWKVDNALQSGNSQESVTEQDSKDSTYSLSSTLTLSKADYEKHKVYACEVTHQGLSSPVTKSFNRGEC	1.36
UCM8 (other) heavy 1: QVQLVQSGVEVKKPGASVKVSCKASGYTFTNYYMYWVRQAPGQGLEWMGGINPSNGGTNFNEKFKNRVTLTTDSSTTTAYMELKSLQFDDTAVYYCARRDYRFDMGFDYWGQGTTVTVSSASTKGPSVFPLAPSSKSTSGGTAALGCLVKDYFPEPVTVSWNSGALTSGVHTFPAVLQSSGLYSLSSVVTVPSSSLGTQTYICNVNHKPSNTKVDKKVEPKSCDKTHTCPPCPAPELLGGPSVFLFPPKPKDTLMISRTPEVTCVVVDVSHEDPEVKFNWYVDGVEVHNAKTKPREEQYASTYRVVSVLTVLHQDWLNGKEYKCKVSNKALPAPIEKTISKAKGQPREPQVYTLPPCRDELTKNQVSLWCLVKGFYPSDIAVEWESNGQPENNYKTTPPVLDSDGSFFLYSKLTVDKSRWQQGNVFSCSVMHEALHNRFTQKSLSLSPGGGSSPPGGGSSGGGSGPAPTSSSTKKTQLQLEHLLLDLQMILNGINNYKNPKLTAMLTAKFAMPKKATELKHLQCLEEALKPLEEVLNLAQSKNFHLRPRDLISNINVIVLELKGSETTFMCEYADETATIVEFLNRWITFAQSIISTLT heavy 2: QVQLVQSGVEVKKPGASVKVSCKASGYTFTNYYMYWVRQAPGQGLEWMGGINPSNGGTNFNEKFKNRVTLTTDSSTTTAYMELKSLQFDDTAVYYCARRDYRFDMGFDYWGQGTTVTVSSASTKGPSVFPLAPSSKSTSGGTAALGCLVKDYFPEPVTVSWNSGALTSGVHTFPAVLQSSGLYSLSSVVTVPSSSLGTQTYICNVNHKPSNTKVDKKVEPKSCDKTHTCPPCPAPELLGGPSVFLFPPKPKDTLMISRTPEVTCVVVDVSHEDPEVKFNWYVDGVEVHNAKTKPREEQYASTYRVVSVLTVLHQDWLNGKEYKCKVSNKALPAPIEKTISKAKGQPREPQVCTLPPSRDELTKNQVSLSCAVKGFYPSDIAVEWESNGQPENNYKTTPPVLDSDGSFFLVSKLTVDKSRWQQGNVFSCSVMHEALHNHYTQKSLSLPLGLGGSSGSGGSGGGSGSGGGSGGSGGEVQLVESGGGLVQPGGSLRLSCAASGSIFSINVMGWYRQAPGKQRELVAAISSGGSTNYADSVKGRFTISRDNAKNTVYLQMNSLKPEDTAVYYCMYASSWYEDETDYWGQGTQVTVSS light: EIVLTQSPATLSLSPGERATLSCRASKGVSTSGYSYLHWYQQKPGQAPRLLIYLASYLESGVPARFSGSGSGTDFTLTISSLEPEDFAVYYCQHSRDLPLTFGGGTKVEIKRTVAAPSVFIFPPSDEQLKSGTASVVCLLNNFYPREAKVQWKVDNALQSGNSQESVTEQDSKDSTYSLSSTLTLSKADYEKHKVYACEVTHQGLSSPVTKSFNRGEC	1.09
UCM4 (other) heavy 1: QVQLVQSGVEVKKPGASVKVSCKASGYTFTNYYMYWVRQAPGQGLEWMGGINPSNGGTNFNEKFKNRVTLTTDSSTTTAYMELKSLQFDDTAVYYCARRDYRFDMGFDYWGQGTTVTVSSASTKGPSVFPLAPSSKSTSGGTAALGCLVKDYFPEPVTVSWNSGALTSGVHTFPAVLQSSGLYSLSSVVTVPSSSLGTQTYICNVNHKPSNTKVDKKVEPKSCDKTHTCPPCPAPELLGGPSVFLFPPKPKDTLMISRTPEVTCVVVDVSHEDPEVKFNWYVDGVEVHNAKTKPREEQYASTYRVVSVLTVLHQDWLNGKEYKCKVSNKALPAPIEKTISKAKGQPREPQVYTLPPCRDELTKNQVSLWCLVKGFYPSDIAVEWESNGQPENNYKTTPPVLDSDGSFFLYSKLTVDKSRWQQGNVFSCSVMHEALHNRFTQKSLSLSPGGGSSPPGGGSSGGGSGPAPTSSSTKKTQLQLEHLLLDLQMILNGINNYKNPKLTAMLTAKFAMPKKATELKHLQCLEEALKPLEEVLNLAQSKNFHLRPRDLISNINVIVLELKGSETTFMCEYADETATIVEFLNRWITFAQSIISTLT heavy 2: QVQLVQSGVEVKKPGASVKVSCKASGYTFTNYYMYWVRQAPGQGLEWMGGINPSNGGTNFNEKFKNRVTLTTDSSTTTAYMELKSLQFDDTAVYYCARRDYRFDMGFDYWGQGTTVTVSSASTKGPSVFPLAPSSKSTSGGTAALGCLVKDYFPEPVTVSWNSGALTSGVHTFPAVLQSSGLYSLSSVVTVPSSSLGTQTYICNVNHKPSNTKVDKKVEPKSCDKTHTCPPCPAPELLGGPSVFLFPPKPKDTLMISRTPEVTCVVVDVSHEDPEVKFNWYVDGVEVHNAKTKPREEQYASTYRVVSVLTVLHQDWLNGKEYKCKVSNKALPAPIEKTISKAKGQPREPQVCTLPPSRDELTKNQVSLSCAVKGFYPSDIAVEWESNGQPENNYKTTPPVLDSDGSFFLVSKLTVDKSRWQQGNVFSCSVMHEALHNHYTQKMPYDLYHPGGSSGSGGSGGGSGSGGGEVQLVESGGGLVQPGGSLRLSCAASGSIFSINVMGWYRQAPGKQRELVAAISSGGSTNYADSVKGRFTISRDNAKNTVYLQMNSLKPEDTAVYYCMYASSWYEDETDYWGQGTQVTVSS light: EIVLTQSPATLSLSPGERATLSCRASKGVSTSGYSYLHWYQQKPGQAPRLLIYLASYLESGVPARFSGSGSGTDFTLTISSLEPEDFAVYYCQHSRDLPLTFGGGTKVEIKRTVAAPSVFIFPPSDEQLKSGTASVVCLLNNFYPREAKVQWKVDNALQSGNSQESVTEQDSKDSTYSLSSTLTLSKADYEKHKVYACEVTHQGLSSPVTKSFNRGEC	1.28
UCM2 (other) heavy 1: QVQLVQSGVEVKKPGASVKVSCKASGYTFTNYYMYWVRQAPGQGLEWMGGINPSNGGTNFNEKFKNRVTLTTDSSTTTAYMELKSLQFDDTAVYYCARRDYRFDMGFDYWGQGTTVTVSSASTKGPSVFPLAPSSKSTSGGTAALGCLVKDYFPEPVTVSWNSGALTSGVHTFPAVLQSSGLYSLSSVVTVPSSSLGTQTYICNVNHKPSNTKVDKKVEPKSCDKTHTCPPCPAPELLGGPSVFLFPPKPKDTLMISRTPEVTCVVVDVSHEDPEVKFNWYVDGVEVHNAKTKPREEQYASTYRVVSVLTVLHQDWLNGKEYKCKVSNKALPAPIEKTISKAKGQPREPQVYTLPPCRDELTKNQVSLWCLVKGFYPSDIAVEWESNGQPENNYKTTPPVLDSDGSFFLYSKLTVDKSRWQQGNVFSCSVMHEALHNRFTQKSLSLSPGGGSSPPGGGSSGGGSGPAPTSSSTKKTQLQLEHLLLDLQMILNGINNYKNPKLTAMLTAKFAMPKKATELKHLQCLEEALKPLEEVLNLAQSKNFHLRPRDLISNINVIVLELKGSETTFMCEYADETATIVEFLNRWITFAQSIISTLT heavy 2: QVQLVQSGVEVKKPGASVKVSCKASGYTFTNYYMYWVRQAPGQGLEWMGGINPSNGGTNFNEKFKNRVTLTTDSSTTTAYMELKSLQFDDTAVYYCARRDYRFDMGFDYWGQGTTVTVSSASTKGPSVFPLAPSSKSTSGGTAALGCLVKDYFPEPVTVSWNSGALTSGVHTFPAVLQSSGLYSLSSVVTVPSSSLGTQTYICNVNHKPSNTKVDKKVEPKSCDKTHTCPPCPAPELLGGPSVFLFPPKPKDTLMISRTPEVTCVVVDVSHEDPEVKFNWYVDGVEVHNAKTKPREEQYASTYRVVSVLTVLHQDWLNGKEYKCKVSNKALPAPIEKTISKAKGQPREPQVCTLPPSRDELTKNQVSLSCAVKGFYPSDIAVEWESNGQPENNYKTTPPVLDSDGSFFLVSKLTVDKSRWQQGNVFSCSVMHEALHNHYTQKSLSLPLGLGGSSGSGGSGGGSGSGGGEVQLVESGGGLVQPGGSLRLSCAASGSIFSINVMGWYRQAPGKQRELVAAISSGGSTNYADSVKGRFTISRDNAKNTVYLQMNSLKPEDTAVYYCMYASSWYEDETDYWGQGTQVTVSS light: EIVLTQSPATLSLSPGERATLSCRASKGVSTSGYSYLHWYQQKPGQAPRLLIYLASYLESGVPARFSGSGSGTDFTLTISSLEPEDFAVYYCQHSRDLPLTFGGGTKVEIKRTVAAPSVFIFPPSDEQLKSGTASVVCLLNNFYPREAKVQWKVDNALQSGNSQESVTEQDSKDSTYSLSSTLTLSKADYEKHKVYACEVTHQGLSSPVTKSFNRGEC	0.84

From patent US20250250314A1 (XILIO DEVELOPMENT, published 2025)
